Measurements published in the RNAGym collection of RNA variant scans (doi:10.1073/pnas.2313332121).
Fewer inactive variants are shown than the library holds.

B1: TPR 5TU (parent)
chain: GGAUCUUCUCGAUCUAACAAAAAAGACAAAUCUGCCACAAAGCUUGAGAGCAUCUUCGGAUGCAGAGGCGGCAGCCUUCGGUGGCGCGAUAGCGCCAACGUUCUCAACUAUGACACGCAAAACGCGUGCUCCGUUGAAUGGAGUUUAUCAUG

Variants of: B1
Assay: polymerase ribozyme fitness, log enrichment relative to wild type (log ratio); higher = more active; in vitro selection for triplet polymerase activity
Procedure, shortened: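 Each subunit of a heterodimeric triplet polymerase ribozyme was mutagenized into a library by PCR, transcribed, and subjected to one round of in vitro selection, run in triplicate. Libraries were annealed with a biotinylated primer, the partner subunit and triplets, incubated frozen at −7 °C, and extended constructs were gel-excised, captured on streptavidin beads and recovered by RT-PCR. Input and output libraries were sequenced on Illumina, keeping genotypes with ≥10 input reads and ≥1 read per output. Fitness is log base 2 of genotype enrichment divided by wild-type enrichment, from inverse-variance-weighted replicate averages.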

| Variant | polymerase ribozyme fitness (log ratio) |
| --- | --- |
| G42A G50C | ≤ -4.2 |
| G42A G62A G65U G136U | ≤ -4.2 |
| G42A C69G C72G C96U G143A | ≤ -4.2 |
| U44A G70C G117A G136U | ≤ -4.2 |
| G42C C95U | -4.14 |
| C43U A49G G84C G140U U146G | ≤ -4.2 |
| G46C C75U C93G U144A | ≤ -4.2 |
| C43U | -4.01 |
| C43G | -4.17 |
| C43A | -4 |
| G46A U56A G83U | -2.27 |
| U44A C85G U109G U146C | ≤ -4.2 |
| U44A A66U C85A | ≤ -4.2 |
| A47C C96U | 0.15 |
| A47C A110U | ≤ -4.2 |
| U45A C76A C85A | ≤ -4.2 |
| G42C C43U A60G C87A C108G A121G A142C | ≤ -4.2 |
| U45G U61A | -2.35 |
| G42C G133C G143C | ≤ -4.2 |
| U45A C118A | -3.79 |
| G42C U55A | -4.09 |
| U44A C103G A115U | ≤ -4.2 |
| U45A U53C C57U C85A C96A C123U C125A A142C | ≤ -4.2 |
| G42U C93A C96U | ≤ -4.2 |

| Variant | polymerase ribozyme fitness (log ratio) |
| --- | --- |
| C43U G80A A115G | ≤ -4.2 |
| A47C G50C A52C C85G C105A G141U | ≤ -4.2 |
| U44A A47C A52G C79U C85U C118U | ≤ -4.2 |
| G46A U144G | 0.469 |
| G42C G84A A122U | ≤ -4.2 |
| U44G U45A A47C C54A C57U U61A C93U | ≤ -4.2 |
| G46C G83C G88C A97G | ≤ -4.2 |
| G46A | -0.076 |
| G46C | -0.9 |
| G46U | -0.0995 |
| U45G G83C G117A | -1.29 |
| C43G U53A G81U U82C | ≤ -4.2 |
| A47C G58C A97G C99G C129A G133U | ≤ -4.2 |
| U45A G50C C54G G67A C87A A91U A115C | ≤ -4.2 |
| G42A C72U A91U | ≤ -4.2 |
| C43A G92C | ≤ -4.2 |
| U45A U56A G65C A91U G92A U130C A147U | ≤ -4.2 |
| G42C U53G G71A G92C C105G A137G | ≤ -4.2 |
| G42U G65C G70A C76A G86U U139G A142U | ≤ -4.2 |
| U45A G83A A121U G141C U148G | ≤ -4.2 |
| G42U U55A | -4.17 |
| U44G U55A A91U G141C | ≤ -4.2 |
| C43U G58A G86A U90G U144A | ≤ -4.2 |
| U44A A49C C54G C57U G58C C95G C96U | ≤ -4.2 |

| Variant | polymerase ribozyme fitness (log ratio) |
| --- | --- |
| A47C A91C C105G A120G G143U | ≤ -4.2 |
| U44A A107U | -0.956 |
| G46C C87A G94C U101A U134A G141U | ≤ -4.2 |
| U45A C87U C132G U139C G143A U145G | ≤ -4.2 |
| C43U C54U G140U | ≤ -4.2 |
| U44C U146C | -3.77 |
| U45C C57A G74C G80U U101A U139A G143C | ≤ -4.2 |
| G46C U55G U144A | -1.97 |
| U44A C85U C87A G117U C149U | ≤ -4.2 |
| U44A A60G G67A G92U C105A | ≤ -4.2 |
| G42A G81U A91C G92U C95G A107C C108A C114G G141A | ≤ -4.2 |
| U45A C118U A120C | -2.58 |
| U44G U45G A97C | ≤ -4.2 |
| U45A A60C C79U C99U U101G G136U | ≤ -4.2 |
| U44A U53G | ≤ -4.2 |
| G46A C51A A98G C125U | ≤ -4.2 |
| C43A U44G U45A | ≤ -4.2 |
| U45C U56A A64C G74A G94C C114U A115U | ≤ -4.2 |
| G46A U53G U56A A91C U104G G128U U146C | ≤ -4.2 |
| C43G U45G U134C | ≤ -4.2 |
| U45G G50C C57A G59A C75U G94C A106U A107U | ≤ -4.2 |
| C43U C116G | -3.65 |
| G42U G48A U55A C118A A137G | ≤ -4.2 |
| C43G C54A C93U A107G | ≤ -4.2 |

| Variant | polymerase ribozyme fitness (log ratio) |
| --- | --- |
| A47C A73U G83C C118A | ≤ -4.2 |
| G42C G80C G86U C118U A121G A150G | ≤ -4.2 |
| G42A G88A C96A C118G G126U | ≤ -4.2 |
| A47C G50U G59A G70A C79U U82G C95U G124A U144G | ≤ -4.2 |
| A47C C72U G92A | -3.53 |
| G42A G59A G80A | ≤ -4.2 |
| U44A C95U | -3.87 |
| U44A C95A | -4.11 |
| A47C G48U G50A U55A G94A | ≤ -4.2 |
| U44A U82C C85A | ≤ -4.2 |
| G42U C85G G86C U90G | ≤ -4.2 |
| G46A C125A U134C | -0.78 |
| C43U A119G | ≤ -4.2 |
| C43U C85G G88A C93G A97U C125A C132G G140C | ≤ -4.2 |
| G42A C54G A91U | ≤ -4.2 |
| U45A A52U C85A U139G | ≤ -4.2 |
| U45A A66G G80A A142G | ≤ -4.2 |
| G46U U55A G84U G126C | -1.83 |
| C43U C96A C116G A137U | ≤ -4.2 |
| U45G G94U G100C A150C | ≤ -4.2 |
| G46A G59A | 0.222 |
| U45C A49C G70C G83C A137C U144C C149U | ≤ -4.2 |
| C43U C69U A91C A137C | ≤ -4.2 |
| G42C U56A C79A | ≤ -4.2 |

| Variant | polymerase ribozyme fitness (log ratio) |
| --- | --- |
| G46A G62U | -4.09 |
| U45A C72G C79U G83U U104G | ≤ -4.2 |
| C43G A52U A142C U144A | ≤ -4.2 |
| G46C A47C G48A U82C | ≤ -4.2 |
| G46A G94C | -1.05 |
| U45A G136C | ≤ -4.2 |
| G42C G48U U61A A110U | ≤ -4.2 |
| C43U U45G G46C A49U U82A A89U C108G | ≤ -4.2 |
| U45G G46A A64U G71U G81A A89G A142G | ≤ -4.2 |
| C43G A47C U104G | ≤ -4.2 |
| G42A C76U G81U G83C A110U C114G | ≤ -4.2 |
| G42U G68C G94U | ≤ -4.2 |
| U44A C85A C96G | ≤ -4.2 |
| G46C G80C A97C U144G | ≤ -4.2 |
| C43U U53A | ≤ -4.2 |
| G46U G83C G92U | -2.34 |
| A47C C85U G117U | 0.38 |
| G42C G46C G70C C95G U101G C129A C132G | ≤ -4.2 |
| C43A C54U G71C C103U A115U G117U | ≤ -4.2 |
| G42C G86U A150U | ≤ -4.2 |
| G42C U56G G68U U78A C93U A142C | ≤ -4.2 |
| G46U G68C U78A C93G C99U G100C C118A A119U U144G G152A | ≤ -4.2 |
| G42C U61A C75G C93A | ≤ -4.2 |
| G46U C96U A142G | -1.19 |

| Variant | polymerase ribozyme fitness (log ratio) |
| --- | --- |
| C43U A147U | -4.06 |
| U44A G86C A120C U146C | ≤ -4.2 |
| G42C A52G U55A U56A G68A | ≤ -4.2 |
| G46C C118G | -1.24 |
| U45G | -0.42 |
| U45C | 0.188 |
| U45A | -2.1 |
| C43U A52C G83U A91U | ≤ -4.2 |
| C43A A52G G83A G124U G143A | ≤ -4.2 |
| G46C U55A | -0.931 |
| G42C U127G A150G | ≤ -4.2 |
| G42A U82G A91G G133A U134C G140C | ≤ -4.2 |
| G46U C87U | -0.944 |
| U44G G92C | ≤ -4.2 |
| G46U G50C A73G C76G A113U U139C | ≤ -4.2 |
| G42A C79U U139A U145A C149G | ≤ -4.2 |
| U44A C57G G70C C96U A107U C149G A150C | ≤ -4.2 |
| G46A C54G | -1.88 |
| U45A G48U G50C C85A C87A C95A U145C | ≤ -4.2 |
| U44A G94A C116U G152U | -4.16 |
| G42U U55G G59A G88U C96G A98G | ≤ -4.2 |
| G46A G67A C87A A97C G143C | ≤ -4.2 |
| C43G C85U C99U A120C G128U A147U | ≤ -4.2 |
| U45A A52C A73C A91U U101C | ≤ -4.2 |

| Variant | polymerase ribozyme fitness (log ratio) |
| --- | --- |
| C43G C125A U146A U148A | ≤ -4.2 |
| U45G U55G C76U G84A | -3.76 |
| C43G A64C A73C C87A C105G | ≤ -4.2 |
| U45G U56A G88A C93G A119G G143U | ≤ -4.2 |
| G42A G71U G126A A138C | ≤ -4.2 |
| G46A C75U C85A A106G | ≤ -4.2 |
| U44A G50A C93G | ≤ -4.2 |
| G46U U55G C76A A89G A106U | ≤ -4.2 |
| U44G U55A C93A A120G | ≤ -4.2 |
| G42C A49C A52C C75U C85U A91U | ≤ -4.2 |
| U45G A49C C63G G84A G141C | ≤ -4.2 |
| U44C A98G | -3.97 |
| C43A C63U C69A G94A C123A U134A G141C | ≤ -4.2 |
| G46C C85G G88A C118U U144G | ≤ -4.2 |
| U45A G68C U82G G83C G94A C118U | ≤ -4.2 |
| G42U G62U C63A C69U C99A C103G C108A | ≤ -4.2 |
| U44G C54U C87U A91U G141C G143C | ≤ -4.2 |
| C43U C51A G86U G126A A137C | ≤ -4.2 |
| U44A A137U | -3.68 |
| C43G G50A C85U | ≤ -4.2 |
| U44A G65C A89U | ≤ -4.2 |
| A47C G48U C75U U77A G83C C96A C99A | ≤ -4.2 |
| G46A A47G C72A C108U U144A | ≤ -4.2 |
